In US12269859B2, “Synthetic immune receptors and methods of use thereof” (Angeles Therapeutics, Inc., priority 2016, dated 2025):

B1: 042517-B02 (protein)
chain: MALPVTALLLPLALLLHAARPQSALTQPASASGSPGQSVTISCTGTSSDVGGYNYVSWYQQHPGKAPKLMIYDVSNRPSGVSNRFSGSKSGNTASLTISGLQAEDEADYYCSSYTSSSTLYVFGTGTQLTVLLEDLKNVFPPEVAVFEPSKAEIAHTQKATLVCLATGFYPDHVELSWWVNGKEVHSGVCTDPQPLKEQPALNDSRYCLSSRLRVSATFWQNPRNHFRCQVQFYGLSENDEWTQDRAKPVTQIVSAEAWGRADCGITSASYHQGVLSATILYEILLGKATLYAVLVSALVLMAMVKRKDSRGRAKRSGSGATNFSLLKQAGDVEENPGPTSMDWIWRILFLVGAATGAHSFEEVQLQQSGPGLVKPSQTLSLTCAISGDSMLSNSDTWNWIRQSPSRGLEWLGRTYHRSTWYDDYASSVRGRVSINVDTSKNQYSLQLNAVTPEDTGVYYCARVRLQDGNSWSDAFDVWGQGTMVTVSSTRIQNPDPAVYQLRDSKSSDKSVCLFTDFDSQTNVSQSKDSDVYITDKCVLDMRSMDFKSNSAVAWSNKSDFACANAFNNSIIPEDTFFPSSDVPCDVKLVEKSFETDTNLNFQNLSVIGFRILLLKVAGFNLLMTLRLWSSRAKRSGSGVKQTLNFDLLKLAGDVESNPGPSRGHMTEYKPTVRLATRDDVPRAVRTLAAAFADYPATRHTVDPDRHIERVTELQELFLTRVGLDIGKVWVADDGAAVAVWTTPESVEAGAVFAEIGPRMAELSGSRLAAQQQMEGLLAPHRPKEPAWFLATVGVSPDHQGKGLGSAVVLPGVEAAERAGVPAFLETSAPRNLPFYERLGFTVTADVEVPEGPRTWCMTRKPGA
B2: 041917-L04 (protein)
chain: MALPVTALLLPLALLLHAARPLEGKPIPNPLLGLDSTGSGEDLKNVFPPEVAVFEPSKAEIAHTQKATLVCLATGFYPDHVELSWWVNGKEVHSGVCTDPQPLKEQPALNDSRYCLSSRLRVSATFWQNPRNHFRCQVQFYGLSENDEWTQDRAKPVTQIVSAEAWGRADCGITSASYHQGVLSATILYEILLGKATLYAVLVSALVLMAMVKRKDSRGRAKRSGSGATNFSLLKQAGDVEENPGPTSMALPVTALLLPLALLLHAARPQVQLVQSGAEVKKPGASVKVSCKASGYTFTSYDINWVRQATGQGLEWMGWMNPNSGNTGYAQKFQGRVTMTRNTSISTAYMELSSLRSEDTAVYYCARGDSTKVEIKGGGGSGGGGSGGGGSQSVLTQPRSVSGSPGQSVTISCTGTSSDVGGYNYVSWYQQHPGEAPKLIIYDADKRPSGISNRFSSGKSGNTASLTISGLQVEDEADYYCCSYAGGSTWVFGGGTKVTVLTREQKLISEEDGSGIQNPDPAVYQLRDSKSSDKSVCLFTDFDSQTNVSQSKDSDVYITDKCVLDMRSMDFKSNSAVAWSNKSDFACANAFNNSIIPEDTFFPSSDVPCDVKLVEKSFETDTNLNFQNLSVIGFRILLLKVAGFNLLMTLRLWSSRAKRSGSGVKQTLNFDLLKLAGDVESNPGPSRGHMTEYKPTVRLATRDDVPRAVRTLAAAFADYPATRHTVDPDRHIERVTELQELFLTRVGLDIGKVWVADDGAAVAVWTTPESVEAGAVFAEIGPRMAELSGSRLAAQQQMEGLLAPHRPKEPAWFLATVGVSPDHQGKGLGSAVVLPGVEAAERAGVPAFLETSAPRNLPFYERLGFTVTADVEVPEGPRTWCMTRKPGA
B3: 041117-S01 (protein)
chain: MALPVTALLLPLALLLHAARPEVQLQQSGPGLVKPSQTLSLTCAISGDSVLSNSDTWNWIRQSPSRGLEWLGRTYHRSTWYDDYASSVRGRVSINVDTSKNQYSLQLNAVTPEDTGVYYCARDRLQDGNSWSDAFDVWGQGTMVTVSSLEDLKNVFPPEVAVFEPSKAEIAHTQKATLVCLATGFYPDHVELSWWVNGKEVHSGVCTDPQPLKEQPALNDSRYCLSSRLRVSATFWQNPRNHFRCQVQFYGLSENDEWTQDRAKPVTQIVSAEAWGRADCGITSASYHQGVLSATILYEILLGKATLYAVLVSALVLMAMVKRKDSRGRAKRSGSGATNFSLLKQAGDVEENPGPTSMDWIWRILFLVGAATGAHSFEQSALTQPASVSGSPGQSITISCTGTSSDVGGYNYVSWYQQHPGKAPKLMIYDVSNRPSGVSNRFSGSKSGNTASLTISGLQAEDEADYYCSSYTSSSTLVYVFGTGTKVTVLTRIQNPDPAVYQLRDSKSSDKSVCLFTDFDSQTNVSQSKDSDVYITDKCVLDMRSMDFKSNSAVAWSNKSDFACANAFNNSIIPEDTFFPSSDVPCDVKLVEKSFETDTNLNFQNLSVIGFRILLLKVAGFNLLMTLRLWSSRAKRSGSGVKQTLNFDLLKLAGDVESNPGPSRGHMTEYKPTVRLATRDDVPRAVRTLAAAFADYPATRHTVDPDRHIERVTELQELFLTRVGLDIGKVWVADDGAAVAVWTTPESVEAGAVFAEIGPRMAELSGSRLAAQQQMEGLLAPHRPKEPAWFLATVGVSPDHQGKGLGSAVVLPGVEAAERAGVPAFLETSAPRNLPFYERLGFTVTADVEVPEGPRTWCMTRKPGA
B4: 040417-W08 (protein)
chain: MALPVTALLLPLALLLHAARPQVQLVQSGAEVKKPGASVKVSCKASGYTFTSYDINWVRQATGQGLEWMGWMNPNSGNTGYAQKFQGRVTMTRNTSISTAYMELSSLRSEDTAVYYCARGDSTKVEIKLEIQNPDPAVYQLRDSKSSDKSVCLFTDFDSQTNVSQSKDSDVYITDKCVLDMRSMDFKSNSAVAWSNKSDFACANAFNNSIIPEDTFFPSSDVPCDVKLVEKSFETDTNLNFQNLSVIGFRILLLKVAGFNLLMTLRLWSSRAKRSGSGVKQTLNFDLLKLAGDVESNPGPTSMDWIWRILFLVGAATGAHSFEQSVLTQPRSVSGSPGQSVTISCTGTSSDVGGYNYVSWYQQHPGEAPKLIIYDADKRPSGISNRFSSGKSGNTASLTISGLQVEDEADYYCCSYAGGSTWVFGGGTKVTVLTREDLKNVFPPEVAVFEPSKAEIAHTQKATLVCLATGFYPDHVELSWWVNGKEVHSGVCTDPQPLKEQPALNDSRYCLSSRLRVSATFWQNPRNHFRCQVQFYGLSENDEWTQDRAKPVTQIVSAEAWGRADCGITSASYHQGVLSATILYEILLGKATLYAVLVSALVLMAMVKRKDSRGRAKRSGSGATNFSLLKQAGDVEENPGPSRGHMTEYKPTVRLATRDDVPRAVRTLAAAFADYPATRHTVDPDRHIERVTELQELFLTRVGLDIGKVWVADDGAAVAVWTTPESVEAGAVFAEIGPRMAELSGSRLAAQQQMEGLLAPHRPKEPAWFLATVGVSPDHQGKGLGSAVVLPGVEAAERAGVPAFLETSAPRNLPFYERLGFTVTADVEVPEGPRTWCMTRKPGA
B5: 040417-V03 (protein)
chain: MALPVTALLLPLALLLHAARPEVQLVESGGGLVQPGRSLRLSCAASGFTFDDYAMHWVRQAPGKGLEWVSGISWNSGSIGYADSVKGRFTISRDNAKNSLYLQMNSLRAEDTALYYCAKDKGGGYYDFWSGSDYWGQGTLVTVSSLEIQNPDPAVYQLRDSKSSDKSVCLFTDFDSQTNVSQSKDSDVYITDKCVLDMRSMDFKSNSAVAWSNKSDFACANAFNNSIIPEDTFFPSSDVPCDVKLVEKSFETDTNLNFQNLSVIGFRILLLKVAGFNLLMTLRLWSSRAKRSGSGVKQTLNFDLLKLAGDVESNPGPTSMDWIWRILFLVGAATGAHSFESSELTQDPAVSVALGQTVRITCQGDSLRSYYASWYQQKPGQAPVLVIYGKNNRPSGIPDRFSGSSSGNTASLTITGAQAEDEADYYCNSRDSSGWVFGGGTKLTVLTREDLKNVFPPEVAVFEPSKAEIAHTQKATLVCLATGFYPDHVELSWWVNGKEVHSGVCTDPQPLKEQPALNDSRYCLSSRLRVSATFWQNPRNHFRCQVQFYGLSENDEWTQDRAKPVTQIVSAEAWGRADCGITSASYHQGVLSATILYEILLGKATLYAVLVSALVLMAMVKRKDSRGRAKRSGSGATNFSLLKQAGDVEENPGPSRGHMTEYKPTVRLATRDDVPRAVRTLAAAFADYPATRHTVDPDRHIERVTELQELFLTRVGLDIGKVWVADDGAAVAVWTTPESVEAGAVFAEIGPRMAELSGSRLAAQQQMEGLLAPHRPKEPAWFLATVGVSPDHQGKGLGSAVVLPGVEAAERAGVPAFLETSAPRNLPFYERLGFTVTADVEVPEGPRTWCMTRKPGA
B6: 042517-A03 (protein)
chain: MALPVTALLLPLALLLHAARPQSALTQPASASGSPGQSVTISCTGTSSDVGGYNYVSWYQQHPGKAPKLMIYDVSNRPSGVSNRFSGSKSGNTASLTISGLQAEDEADYYCSSYTSSSTLYVFGTGTQLTVLLEIQNPDPAVYQLRDSKSSDKSVCLFTDFDSQTNVSQSKDSDVYITDKCVLDMRSMDFKSNSAVAWSNKSDFACANAFNNSIIPEDTFFPSSDVPCDVKLVEKSFETDTNLNFQNLSVIGFRILLLKVAGFNLLMTLRLWSSRAKRSGSGVKQTLNFDLLKLAGDVESNPGPTSMDWIWRILFLVGAATGAHSFEEVQLQQSGPGLVKPSQTLSLTCAISGDSMLSNSDTWNWIRQSPSRGLEWLGRTYHRSTWYDDYASSVRGRVSINVDTSKNQYSLQLNAVTPEDTGVYYCARVRLQDGNSWSDAFDVWGQGTMVTVSSTREDLKNVFPPEVAVFEPSKAEIAHTQKATLVCLATGFYPDHVELSWWVNGKEVHSGVCTDPQPLKEQPALNDSRYCLSSRLRVSATFWQNPRNHFRCQVQFYGLSENDEWTQDRAKPVTQIVSAEAWGRADCGITSASYHQGVLSATILYEILLGKATLYAVLVSALVLMAMVKRKDSRGRAKRSGSGATNFSLLKQAGDVEENPGPSRGHMTEYKPTVRLATRDDVPRAVRTLAAAFADYPATRHTVDPDRHIERVTELQELFLTRVGLDIGKVWVADDGAAVAVWTTPESVEAGAVFAEIGPRMAELSGSRLAAQQQMEGLLAPHRPKEPAWFLATVGVSPDHQGKGLGSAVVLPGVEAAERAGVPAFLETSAPRNLPFYERLGFTVTADVEVPEGPRTWCMTRKPGA

The molecules below were run on target antigen-expressing cell line (assay: Jurkat NFAT-GFP assay, coculture with target cell lines expressing the respective target antigen (summary Table 10A)). Conditions: SIR-expressing Jurkat-NFAT-GFP cells cocultured with NALM6; relative % GFP positive cells.
Type: cell-based, human
Design: key: The signs +/−, +, 2+ etc. after the name of the cell lines indicate the relative degree of positivity on the Jurkat-NFAT-GFP assay as measured by the % GFP positive cells; +: relative degree of positivity on the Jurkat-NFAT-GFP assay as measured by the % GFP positive cells; 2+: relative degree of positivity on the Jurkat-NFAT-GFP assay as measured by the % GFP positive cells
Method in brief: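 Stable SIR expression in Jurkat-NFAT-GFP cells by lentiviral transfer and puromycin selection; coculture with target cells (E:T approximately 1:2) for 4 to 18 hours; flow cytometric measurement of NFAT-driven GFP; scoring as positive when % GFP-positive cells exceeds that of parental reporter cells.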

Molecule | NFAT-GFP ASSAY Positive Cell lines: NALM6
B1 | (+/−)

Same assay, conditions: SIR-expressing Jurkat-NFAT-GFP cells cocultured with RAJI; relative % GFP positive cells

Molecule | NFAT-GFP ASSAY Positive Cell lines: RAJI
B2 | RAJI (+/−)
B3 | RAJI (+/−)
B4 | RAJI (2+)
B1 | RAJI (+), NALM6
B5 | RAJI (+/−)
B6 | RAJI (+)
